In paper PMC7352350, “Molecular Interactions Stabilizing the Promatrix Metalloprotease-9·Serglycin Heteromer” (International Journal of Molecular Sciences, 2020):

T1: recombinant human His-tagged serglycin (human, UniProt P10124 28-158)
T1 construct: serglycin core protein, human, the tag stands instead of the signal peptide; no GAG chains; numbers count on: the mature protein (1-131); also called Ht-SG; SG core protein; source: bought: ProSpec (produced in Escherichia coli)
T1 sequence (looked up): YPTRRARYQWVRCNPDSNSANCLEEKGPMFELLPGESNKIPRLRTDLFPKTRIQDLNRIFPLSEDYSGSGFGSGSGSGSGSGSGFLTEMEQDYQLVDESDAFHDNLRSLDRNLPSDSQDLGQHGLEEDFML

B1: SG peptide 50 (peptide, UniProt P10124 126-145, looked up)
peptide: SDAFHDNLRSLDRNLPSDSQ
notes: serglycin core protein, spot 50 of the 20-mer walk with two-residue shift; numbers count on: the mature protein (1-131); source: synthetic peptide on a cellulose membrane
B2: SG peptide 54 (peptide, UniProt P10124 134-153, looked up)
peptide: RSLDRNLPSDSQDLGQHGLE
notes: serglycin core protein, spot 54 of the 20-mer walk with two-residue shift; numbers count on: the mature protein (1-131); source: synthetic peptide on a cellulose membrane
B3: SG peptide 51 (peptide, UniProt P10124 128-147, looked up)
peptide: AFHDNLRSLDRNLPSDSQDL
notes: serglycin core protein, spot 51 of the 20-mer walk with two-residue shift; numbers count on: the mature protein (1-131); source: synthetic peptide on a cellulose membrane
B4: SG peptide 53 (peptide, UniProt P10124 132-151, looked up)
peptide: NLRSLDRNLPSDSQDLGQHG
notes: serglycin core protein, spot 53 of the 20-mer walk with two-residue shift; numbers count on: the mature protein (1-131); source: synthetic peptide on a cellulose membrane
B5: SG peptide 52 (peptide, UniProt P10124 130-149, looked up)
peptide: HDNLRSLDRNLPSDSQDLGQ
notes: serglycin core protein, spot 52 of the 20-mer walk with two-residue shift; numbers count on: the mature protein (1-131); source: synthetic peptide on a cellulose membrane
B6: HPX peptide 69 with F673 mutated (peptide, UniProt P14780 657-676, looked up)
peptide: VPLDTHDVFQYREKAYGCQD
notes: MMP-9 HPX domain, mutated 20-mer of spot 69; source: synthetic peptide on a cellulose membrane
B7: HPX peptide 69 with Y672 mutated (peptide, UniProt P14780 657-676, looked up)
peptide: VPLDTHDVFQYREKAAFCQD
notes: as for B6
B8: HPX peptide 41 with D609 mutated (peptide, UniProt P14780 601-620, looked up)
peptide: LDKLGLGAAVAQVTGALRSG
notes: MMP-9 HPX domain, mutated 20-mer of spot 41; source: synthetic peptide on a cellulose membrane
B9: HPX peptide 18 (peptide, UniProt P14780 555-574, looked up)
peptide: LIADKWPALPRKLDSVFEER
notes: MMP-9 HPX domain (F521-D707), spot 18 of the 20-mer walk with two-residue shift; source: synthetic peptide on a cellulose membrane
B10: FnII peptide 15 (peptide, UniProt P14780 253-272, looked up)
peptide: LPWCSTTANYDTDDRFGFCP
notes: MMP-9 FnII module (A225-D390), spot 15 of the 20-mer walk with two-residue shift; source: synthetic peptide on a cellulose membrane
B11: FnII peptide 14 (peptide, UniProt P14780 251-270, looked up)
peptide: DGLPWCSTTANYDTDDRFGF
notes: MMP-9 FnII module (A225-D390), spot 14 of the 20-mer walk with two-residue shift; source: synthetic peptide on a cellulose membrane
B12: HPX peptide 41 (peptide, UniProt P14780 601-620, looked up)
peptide: LDKLGLGADVAQVTGALRSG
notes: MMP-9 HPX domain (F521-D707), spot 41 of the 20-mer walk with two-residue shift; source: synthetic peptide on a cellulose membrane
B13: FnII peptide 22 (peptide, UniProt P14780 267-286, looked up)
peptide: RFGFCPSERLYTQDGNADGK
notes: MMP-9 FnII module (A225-D390), spot 22 of the 20-mer walk with two-residue shift; source: synthetic peptide on a cellulose membrane
B14: HPX peptide 84 (peptide, UniProt P14780 687-706, looked up)
peptide: ELNQVDQVGYVTYDILQCPE
notes: MMP-9 HPX domain (F521-D707), spot 84 of the 20-mer walk with two-residue shift; source: synthetic peptide on a cellulose membrane
B15: HPX peptide 56 (peptide, UniProt P14780 631-650, looked up)
peptide: RLWRFDVKAQMVDPRSASEV
notes: MMP-9 HPX domain (F521-D707), spot 56 of the 20-mer walk with two-residue shift; source: synthetic peptide on a cellulose membrane
B16: HPX peptide 70 (peptide, UniProt P14780 659-678, looked up)
peptide: LDTHDVFQYREKAYFCQDRF
notes: MMP-9 HPX domain (F521-D707), spot 70 of the 20-mer walk with two-residue shift; source: synthetic peptide on a cellulose membrane
B17: FnII peptide 35 (peptide, UniProt P14780 293-312, looked up)
peptide: IFQGQSYSACTTDGRSDGYR
notes: MMP-9 FnII module (A225-D390), spot 35 of the 20-mer walk with two-residue shift; source: synthetic peptide on a cellulose membrane
B18: HPX peptide 71 (peptide, UniProt P14780 661-680, looked up)
peptide: THDVFQYREKAYFCQDRFYW
notes: MMP-9 HPX domain (F521-D707), spot 71 of the 20-mer walk with two-residue shift; source: synthetic peptide on a cellulose membrane
B19: HPX peptide 37 (peptide, UniProt P14780 593-612, looked up)
peptide: ASVLGPRRLDKLGLGADVAQ
notes: MMP-9 HPX domain (F521-D707), spot 37 of the 20-mer walk with two-residue shift; source: synthetic peptide on a cellulose membrane
B20: FnII peptide 21 (peptide, UniProt P14780 265-284, looked up)
peptide: DDRFGFCPSERLYTQDGNAD
notes: MMP-9 FnII module (A225-D390), spot 21 of the 20-mer walk with two-residue shift; source: synthetic peptide on a cellulose membrane
B21: FnII peptide 17 (peptide, UniProt P14780 257-276, looked up)
peptide: STTANYDTDDRFGFCPSERL
notes: MMP-9 FnII module (A225-D390), spot 17 of the 20-mer walk with two-residue shift; source: synthetic peptide on a cellulose membrane
B22: HPX peptide 12 (peptide, UniProt P14780 543-562, looked up)
peptide: SEGRGSRPQGPFLIADKWPA
notes: MMP-9 HPX domain (F521-D707), spot 12 of the 20-mer walk with two-residue shift; source: synthetic peptide on a cellulose membrane
B23: HPX peptide 69 (peptide, UniProt P14780 657-676, looked up)
peptide: VPLDTHDVFQYREKAYFCQD
notes: MMP-9 HPX domain (F521-D707), spot 69 of the 20-mer walk with two-residue shift; source: synthetic peptide on a cellulose membrane
B24: FnII peptide 13 (peptide, UniProt P14780 249-268, looked up)
peptide: RSDGLPWCSTTANYDTDDRF
notes: MMP-9 FnII module (A225-D390), spot 13 of the 20-mer walk with two-residue shift; source: synthetic peptide on a cellulose membrane

target: T2, proMMP-9 purified from THP-1 cells (human (endogenous in THP-1), UniProt P14780 20-707); assay: peptide or protein array; 20-mer walk of the SG core protein on cellulose, two-residue shift; 8.8 ul of 11.2 ug/mL proMMP-9 in 10 mL blocking buffer, 1-4 h, room temperature; antibody against MMP-9; details: both partners purified
T2 construct: matrix metalloprotease-9 proenzyme, human; pre domain cleaved off, the mature proenzyme is 20-707; the preparation holds a small amount of TIMP-1; monomer and reduction-sensitive homomultimer; also called pMMP-9; promatrix metalloprotease-9; source: purified from conditioned medium of PMA-stimulated THP-1 cells (Q-Sepharose pass-through, gelatin-Sepharose)

Row | binding result | Binder
1 | binds | B1
2 | binds | B2
3 | binds | B3
4 | binds | B4
5 | binds | B5

target: T1, recombinant human His-tagged serglycin; assay: peptide or protein array; mutated FnII and HPX 20-mer peptides on cellulose, incubated with Ht-SG; antibodies against SG; details: both partners purified

Row | binding result | Binder
6 | binds | B6
7 | binds | B7
8 | binds | B8

target: T1, recombinant human His-tagged serglycin; assay: peptide or protein array; 20-mer walks of the MMP-9 FnII module and HPX domain on cellulose, two-residue shift; 10 uL of 1 ng/uL Ht-SG in 10 mL blocking buffer, 1-4 h, room temperature; antibodies against SG; details: both partners purified

Row | binding result | Binder
9 | binds | B9
10 | binds | B10
11 | binds | B11
12 | binds | B12
13 | binds | B13
14 | binds | B14
15 | binds | B15
16 | binds | B16
17 | binds | B17
18 | binds | B18
19 | binds | B19
20 | binds | B20
21 | binds | B21
22 | binds | B22
23 | binds | B23
24 | binds | B24
